The text below walks through data of US20150191542A1 (INNATE PHARMA S A, published 2015).

The target of experiment [1] is T1, MICA*001 extracellular domain recombinant protein (full extracellular domain with a BirA or a Poly-His Tag) (human, UniProt Q29983 24-297).
T1 construct: it may be the same as MICA*001-His; also called MICA extracellular domain recombinant protein; not shown: BirA or poly-His tag
T1 sequence: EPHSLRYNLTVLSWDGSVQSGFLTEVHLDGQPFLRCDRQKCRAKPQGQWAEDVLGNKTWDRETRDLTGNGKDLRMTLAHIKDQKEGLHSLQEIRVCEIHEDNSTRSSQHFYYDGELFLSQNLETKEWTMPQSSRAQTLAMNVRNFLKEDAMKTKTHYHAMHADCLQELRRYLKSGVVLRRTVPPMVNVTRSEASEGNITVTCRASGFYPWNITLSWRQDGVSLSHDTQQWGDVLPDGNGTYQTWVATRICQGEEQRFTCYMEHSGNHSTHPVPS
Nature of the experiment: ELISA, 3 µg/ml recombinant protein coated. The protocol: 3 μg/ml of the indicated MICA recombinant proteins were coated overnight in 96-well plates in PBS 1× at 4° C. All subsequent steps were performed at room temperature. After washes with PBS 1×/Tween 0.05%, plates were saturated for an additional 2 hours in PBS 1×/BSA 1%. Two additional washes were performed prior adding the tested anti-MICA mAb in PBS 1×/BSA 1% for 2 hours. Antibodies were washed and a horseradish peroxidase conjugated goat polyclonal anti-mouse IgG (GAM-HRP) in PBS 1×/BSA 1% was added for 1 hour. Final washing steps were performed and TMB substrate was added to reveal the ELISA (5 to 20 min in the dark) and 1M HCl was added to stop the enzymatic reaction. O.D. was measured at 450 nm.
9C10 binds to MICA extracellular domain recombinant-protein but not MICA extracellular domain α3 recombinant protein. Antibody 16A8, however, bound to both MICA extracellular domain recombinant protein […] MICA extracellular domain α3 recombinant protein. Therefore, it can be concluded from this ELISA experiment that the binding site on MICA of 9C10 antibodies includes the α1 and/or α2 domains while antibody 16A8 binds to MICA within the α3 domain. […] BAMO1 is a commercially available anti-MICA specific for α1α2 domain and BAMO3 is a commercially available anti-MICA specific for α3 domain.
Background: In an ELISA, binding on a coated surface is turned into a signal by an enzyme label.

Experiment [2] deals with T2, MICA*001 expressed on transfected cells (human).
T2 construct: the cells carry the complete allele; also called C1R-MICA*001; C1R-MICA*01
T2 chain: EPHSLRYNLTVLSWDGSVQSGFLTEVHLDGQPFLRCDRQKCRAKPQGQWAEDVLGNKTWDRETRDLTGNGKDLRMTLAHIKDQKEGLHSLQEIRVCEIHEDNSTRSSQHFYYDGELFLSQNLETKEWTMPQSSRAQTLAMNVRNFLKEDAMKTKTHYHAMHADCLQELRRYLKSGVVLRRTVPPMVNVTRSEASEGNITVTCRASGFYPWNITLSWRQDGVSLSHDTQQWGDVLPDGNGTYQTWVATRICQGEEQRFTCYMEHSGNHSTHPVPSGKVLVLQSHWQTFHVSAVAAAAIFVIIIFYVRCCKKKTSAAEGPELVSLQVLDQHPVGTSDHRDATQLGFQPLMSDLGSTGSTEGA
The experiment is described as follows: flow cytometry on C1R-MICA*001 cells, 3-parameter logistic fit. The protocol:
(§1) The binding of antibodies obtained from the first and second immunization series (including 9C10, 20C6 and 16A8) were tested for binding to MICA-expressing CR1 transfectant cells C1R-MICA*001, C1R-MICA*004, C1R-MICA*007 and C1R-MICA*008 (Pr. A. Steinle, Eberhard-Karls University Tuebingen, Germany) described in Salih et al. (2003) Blood 102(4): […]. Binding was analyzed by flow cytometry.
(§2) Cells were harvested and stained in PBS 1×/BSA 0,2%/EDTA 2 mM buffer during 30 minutes at 4° C. using a dose-range of the anti-MICA mAbs. After two washes in staining buffer, cells were stained for 30 min at 4° C. with goat anti-mouse (H+L)-PE polyclonal antibodies (1/200). After two washes, stainings were acquired on a BD FACS Canto II and analyzed using the FlowJo software.
(§3) Antibodies 9C10, 20C6 and 16A8 bound to each of the C1R-MICA*001, C1R-MICA*004, C1R-MICA*007 and C1R-MICA*008 cells (see FIGS. 3A, 3B and 3C for antibodies 9C10, 20C6 and 16A8 respectively). […] EC50 values are shown in Table C in μg/ml (calculated using a 3-parameter logistic fit).
In general terms: In flow cytometry, cells or beads pass a laser one at a time.

The target of experiment [3] is T3, MICA*004 expressed on C1R transfectant cells (human, UniProt Q29983 24-297, Glycosylated on cells; the letters do not carry this.).
T3 construct: also called C1R-MICA*004; C1R-MICA*04
T3 chain: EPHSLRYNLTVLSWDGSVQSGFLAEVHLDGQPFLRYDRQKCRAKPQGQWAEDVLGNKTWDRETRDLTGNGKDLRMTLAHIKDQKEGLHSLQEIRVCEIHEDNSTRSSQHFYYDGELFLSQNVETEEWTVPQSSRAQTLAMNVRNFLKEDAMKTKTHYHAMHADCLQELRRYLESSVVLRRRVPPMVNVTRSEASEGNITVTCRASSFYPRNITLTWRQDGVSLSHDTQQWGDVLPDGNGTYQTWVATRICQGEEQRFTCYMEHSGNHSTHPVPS
Nature of the experiment: flow cytometry on C1R-MICA*004 cells, 3-parameter logistic fit. The procedure: as §1, §2, §3

Experiment [4] deals with T4, MICA*007 expressed on C1R transfectant cells (human, UniProt Q29983 24-297, Glycosylated on cells; the letters do not carry this.).
T4 construct: also called C1R-MICA*007; C1R-MICA*07
T4 chain: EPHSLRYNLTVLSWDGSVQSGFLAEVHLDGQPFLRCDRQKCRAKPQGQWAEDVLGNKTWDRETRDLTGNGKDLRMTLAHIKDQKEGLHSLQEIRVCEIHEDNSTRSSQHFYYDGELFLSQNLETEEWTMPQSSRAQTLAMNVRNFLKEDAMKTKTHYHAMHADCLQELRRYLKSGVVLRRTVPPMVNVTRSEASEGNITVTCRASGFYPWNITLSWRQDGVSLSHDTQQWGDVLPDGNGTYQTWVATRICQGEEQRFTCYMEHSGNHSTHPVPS
The experiment is described as follows: flow cytometry on C1R-MICA*007 cells, 3-parameter logistic fit. The procedure: as §1, §2, §3

B1: antibody 9C10 (antibody, V domains shown)
VH: QVQLQQPGAELVRPGTSVNLSCKASGYSFTRYWMNWVKQRPGQGLEWIGMIHPSDSETRLNQKFKDKATLTVDKSSSTAYMQLSSPTSEDSAVYYCGYGNFFYVMDYWGQGTSVTVSS
VL: DILLTQSPAILSVSPGERVSFSCRASQSIGTSIHWYQQRTNGSPRLLIKFASESISGIPSRFSGSGSGTDFTLNINSVESEDIADYYCQQSNFWPFTFGSGTKLEVK
modifications: Biotinylated when captured in the SPR assays (9C10-Biot); the sites are not given.
notes: Murine hybridoma antibody of IgG2b isotype as tested; also called 9C10-Biot
As a reminder, the EC50 is the concentration at which the effect is half-maximal. Read a high EC50 as a need for much substance. For B1, in experiment [1], the binding result was “binds”. The 50% effective concentration (EC50) turned out to be 3.15 µg/mL in experiment [2], 0.2 µg/mL in experiment [3] and 7.93 µg/mL in experiment [4].

B2: antibody 16A8 (antibody, V domains shown)
VH: EVQLVESGGGLVKPGGSLKLSCAASGFTFSRYAMSWVRQTPEKRLEWVATIFSGGSYTYYPDSVKGRFTISRDNANNTLYLQMSSLKAEDTAMYFCARPNWERTFDYWGQGTTLTVSS
VL: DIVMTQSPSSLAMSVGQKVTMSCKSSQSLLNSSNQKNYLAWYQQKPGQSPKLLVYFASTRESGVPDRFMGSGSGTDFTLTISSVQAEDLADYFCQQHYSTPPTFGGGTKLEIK
notes: Murine hybridoma antibody of IgG2a isotype as tested; also called 16A8-Biot
For B2, the binding result in experiment [1] is “binds”. The concentration for a half-maximal effect (EC50) came out at 1.18 µg/mL in experiment [2], 0.31 µg/mL in experiment [3] and 0.74 µg/mL in experiment [4].
